# Measurements published in IntAct's records for PubMed 11359767.
# B1: E3 ubiquitin-protein ligase NEDD4 (Homo sapiens), P46934 (parent)
# chain: MAQSLRLHFAARRSNTYPLSETSGDDLDSHVHMCFKRPTRISTSNVVQMKLTPRQTALAPLIKENVQSQERSSVPSSENVNKKSSCLQISLQPTRYSGYLQSSNVLADSDDASFTCILKDGIYSSAVVDNELNAVNDGHLVSSPAICSGSLSNFSTSDNGSYSSNGSDFGSCASITSGGSYTNSVISDSSSYTFPPSDDTFLGGNLPSDSTSNRSVPNRNTTPCEIFSRSTSTDPFVQDDLEHGLEIMKLPVSRNTKIPLKRYSSLVIFPRSPSTTRPTSPTSLCTLLSKGSYQTSHQFIISPSEIAHNEDGTSAKGFLSTAVNGLRLSKTICTPGEVRDIRPLHRKGSLQKKIVLSNNTPRQTVCEKSSEGYSCVSVHFTQRKAATLDCETTNGDCKPEMSEIKLNSDSEYIKLMHRTSACLPSSQNVDCQININGELERPHSQMNKNHGILRRSISLGGAYPNISCLSSLKHNCSKGGPSQLLIKFASGNEGKVDNLSRDSNRDCTNELSNSCKTRDDFLGQVDVPLYPLPTENPRLERPYTFKDFVLHPRSHKSRVKGYLRLKMTYLPKTSGSEDDNAEQAEELEPGWVVLDQPDAACHLQQQQEPSPLPPGWEERQDILGRTYYVNHESRRTQWKRPTPQDNLTDAENGNIQLQAQRAFTTRRQISEETESVDNRESSENWEIIREDEATMYSNQAFPSPPPSSNLDVPTHLAEELNARLTIFGNSAVSQPASSSNHSSRRGSLQAYTFEEQPTLPVLLPTSSGLPPGWEEKQDERGRSYYVDHNSRTTTWTKPTVQATVETSQLTSSQSSAGPQSQASTSDSGQQVTQPSEIEQGFLPKGWEVRHAPNGRPFFIDHNTKTTTWEDPRLKIPAHLRGKTSLDTSNDLGPLPPGWEERTHTDGRIFYINHNIKRTQWEDPRLENVAITGPAVPYSRDYKRKYEFFRRKLKKQNDIPNKFEMKLRRATVLEDSYRRIMGVKRADFLKARLWIEFDGEKGLDYGGVAREWFFLISKEMFNPYYGLFEYSATDNYTLQINPNSGLCNEDHLSYFKFIGRVAGMAVYHGKLLDGFFIRPFYKMMLHKPITLHDMESVDSEYYNSLRWILENDPTELDLRFIIDEELFGQTHQHELKNGGSEIVVTNKNKKEYIYLVIQWRFVNRIQKQMAAFKEGFFELIPQDLIKIFDENELELLMCGLGDVDVNDWREHTKYKNGYSANHQVIQWFWKAVLMMDSEKRIRLLQFVTGTSRVPMNGFAELYGSNGPQSFTVEQWGTPEKLPRAHTCFNRLDLPPYESFEELWDKLQMAIENTQGFDGVD
# partner: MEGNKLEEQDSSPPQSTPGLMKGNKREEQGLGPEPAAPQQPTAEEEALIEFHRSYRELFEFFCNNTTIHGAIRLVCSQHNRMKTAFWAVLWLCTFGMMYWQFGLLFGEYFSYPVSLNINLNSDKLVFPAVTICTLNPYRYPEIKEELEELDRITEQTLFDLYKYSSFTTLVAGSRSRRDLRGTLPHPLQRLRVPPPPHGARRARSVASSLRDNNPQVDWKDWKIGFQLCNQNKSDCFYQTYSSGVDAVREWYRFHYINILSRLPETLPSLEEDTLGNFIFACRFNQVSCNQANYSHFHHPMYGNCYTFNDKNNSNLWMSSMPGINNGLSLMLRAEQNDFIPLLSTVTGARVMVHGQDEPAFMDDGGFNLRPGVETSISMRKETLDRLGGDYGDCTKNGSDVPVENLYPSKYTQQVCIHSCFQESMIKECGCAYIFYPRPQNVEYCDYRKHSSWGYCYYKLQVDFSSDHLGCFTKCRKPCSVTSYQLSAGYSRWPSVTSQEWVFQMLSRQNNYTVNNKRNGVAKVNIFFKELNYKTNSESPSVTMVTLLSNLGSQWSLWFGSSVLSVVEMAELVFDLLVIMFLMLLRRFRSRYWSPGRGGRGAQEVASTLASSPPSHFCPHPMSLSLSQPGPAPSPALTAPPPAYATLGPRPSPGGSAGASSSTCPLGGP
# Variants of: B1
# Settings: with scnna_human SCNN1A
row,Variant,effect of a mutation on the interaction
1,V629W;H631G;I859W;H861G;I911W;H913G,disrupting interaction strength
2,I859W;H861G,disrupting interaction strength
3,V629W;H631G,with no effect
4,V629W;H631G;V786W;H788G;I859W;H861G,disrupting interaction strength
5,V786W;H788G;I859W;H861G;I911W;H913G,disrupting interaction strength
6,I911W;H913G,with no effect
7,V629W;H631G;V786W;H788G;I911W;H913G,with no effect
8,V629W;H631G;V786W;H788G;I859W;H861G;I911W;H913G,disrupting interaction strength
9,V786W;H788G,with no effect
